# From patent US20190375812A1
# Biological target: IL2Rαβγ, the high affinity IL-2 receptor, on human Treg cells (human) (UniProt P01589)
# Assay: cell-based or functional assay
# Sequence of IL2Rαβγ, the high affinity IL-2 receptor, on human Treg cells (human) (P01589 22-272, chain 1 of 3): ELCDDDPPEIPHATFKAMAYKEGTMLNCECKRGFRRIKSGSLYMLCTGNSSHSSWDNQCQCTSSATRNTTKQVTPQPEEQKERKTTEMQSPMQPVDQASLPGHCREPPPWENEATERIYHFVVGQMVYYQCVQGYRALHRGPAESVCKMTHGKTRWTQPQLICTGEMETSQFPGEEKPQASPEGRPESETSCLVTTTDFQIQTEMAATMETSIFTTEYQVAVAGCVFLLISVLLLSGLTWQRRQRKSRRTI
# Sequence of IL2Rαβγ, the high affinity IL-2 receptor, on human Treg cells (human) (P14784 27-551, chain 2 of 3, further chain): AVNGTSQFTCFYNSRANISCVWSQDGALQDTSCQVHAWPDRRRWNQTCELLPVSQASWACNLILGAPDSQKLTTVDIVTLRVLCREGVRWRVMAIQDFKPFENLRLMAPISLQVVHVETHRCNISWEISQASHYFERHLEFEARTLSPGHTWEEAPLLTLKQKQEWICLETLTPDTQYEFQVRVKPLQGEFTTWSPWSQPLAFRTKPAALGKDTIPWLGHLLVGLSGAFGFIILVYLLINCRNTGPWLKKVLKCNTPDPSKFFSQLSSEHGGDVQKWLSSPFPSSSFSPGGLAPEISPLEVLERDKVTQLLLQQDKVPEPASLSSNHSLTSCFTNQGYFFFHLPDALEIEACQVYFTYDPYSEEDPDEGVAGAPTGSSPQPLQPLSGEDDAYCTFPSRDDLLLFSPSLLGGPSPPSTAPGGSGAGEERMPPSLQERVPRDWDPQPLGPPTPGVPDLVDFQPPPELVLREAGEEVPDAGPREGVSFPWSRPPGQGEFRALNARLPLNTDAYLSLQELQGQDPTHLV
# Sequence of IL2Rαβγ, the high affinity IL-2 receptor, on human Treg cells (human) (P31785 23-369, chain 3 of 3, further chain): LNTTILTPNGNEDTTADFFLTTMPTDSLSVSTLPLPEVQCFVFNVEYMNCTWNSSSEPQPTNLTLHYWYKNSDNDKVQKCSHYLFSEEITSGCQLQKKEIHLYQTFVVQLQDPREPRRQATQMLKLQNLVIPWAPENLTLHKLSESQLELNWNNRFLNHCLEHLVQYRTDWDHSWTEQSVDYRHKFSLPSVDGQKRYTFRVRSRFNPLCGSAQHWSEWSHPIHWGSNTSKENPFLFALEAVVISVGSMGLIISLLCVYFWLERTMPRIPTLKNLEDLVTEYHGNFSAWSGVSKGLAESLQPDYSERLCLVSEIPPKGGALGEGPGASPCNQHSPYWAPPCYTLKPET
substance,measurement,value
N88R/IL2 (from UniProt P60568 21-153) (ligand),"Percentage of pSTAT5+ cells, Treg cells in human PBMC, 10^-8 M protein",99.9%
